Laboratory results reported in US6682731 (LUDWIG INSTITUTE FOR CANCER RESEARCH, dated 2004).

Molecular target: T1, HLA-A2 molecule (MHC class I heterodimer, no peptide of the filing added) (human)
T1 construct: as control target of the CTL assays it stood on T2 cells without added peptide or on COS-7 cells transfected with HLA-A2 alone; The subtype is printed only as HLA-A2.01 for the transfected gene; also called HLA-A2.01; MHC class-I molecule
Assay: HLA-A2 assembly/stabilisation in 0.174 cell lysate with 10 and 20 uM peptide, immunoprecipitation with mAb BB7.2, gel
Description: It is an HLA-A2 presenting cell line deficient in the pathway which supplies peptides to the endoplasmic reticulum, the site of assembly of MHC class-I heterodimers. The cell line can assemble MHC class-I molecules, but these are unstable and, on cell lysis, dissociate into free heavy and light chains during overnight incubation. The heterodimers can, however, be stabilized in vitro via addition of appropriate peptide ligands. […] Thus, the stabilized molecules can be immunoprecipitated with antibodies specific for the MHC class-I molecule.
In the first part of these experiments, peptides were tested to determine if they facilitated assembly of HLA-A2 in the cell line. […] The cells were then washed, once, with phosphate buffered saline, and then resuspended in 10 ml of lysis buffer (0.5% NP-40; 0.5% Mega 9, 150 mM NaCl, 5 mM EDTA, 50 mM Tris [pH 7.5], 2 mM phenylmethylsulfonylfluoride, 5 mM iodoacetamide). The lysates were then incubated with peptide (10 μM and 20 μM), for 15–18 hours. Nuclei were then pelleted in a microfuge, and the lysates were precleared, overnight, at 4° C. with 0.2 ml of washed, 10% (w/v) Staphylococcus A organisms. […] The mixtures were incubated for 90 minutes on ice, followed by addition of bovine serum albumin to 1% (w/v), and 100 ul of 5% (w/v) protein-A Sepharose beads.

TLVEVTLGEV [peptide SEQ ID NO: 7, Thr Leu Val Glu Val Thr Leu Gly Glu Val]: binds.
